From patent US20140178333A1

Molecular target: IL-28 receptor (IL-28 receptor alpha subunit with endogenous CRF2-4) on transfected 293 HEK cells (human)
Assay: cell-based or functional assay

IL-28 receptor (IL-28 receptor alpha subunit with endogenous CRF2-4) on transfected 293 HEK cells (human), sequence (Q8IU57 21-520): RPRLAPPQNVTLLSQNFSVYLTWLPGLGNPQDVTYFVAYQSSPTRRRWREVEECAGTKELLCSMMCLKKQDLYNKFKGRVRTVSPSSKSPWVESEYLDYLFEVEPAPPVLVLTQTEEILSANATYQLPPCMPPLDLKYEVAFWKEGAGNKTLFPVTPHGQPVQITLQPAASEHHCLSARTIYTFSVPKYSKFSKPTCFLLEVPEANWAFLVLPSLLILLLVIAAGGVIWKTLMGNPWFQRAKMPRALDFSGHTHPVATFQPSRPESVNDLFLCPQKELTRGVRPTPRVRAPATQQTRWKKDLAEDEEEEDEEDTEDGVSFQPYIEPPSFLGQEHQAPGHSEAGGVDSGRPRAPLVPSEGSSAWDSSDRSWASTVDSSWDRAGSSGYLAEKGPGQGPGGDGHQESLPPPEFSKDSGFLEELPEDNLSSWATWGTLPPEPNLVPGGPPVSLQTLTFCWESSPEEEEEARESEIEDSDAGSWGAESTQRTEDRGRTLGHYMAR

Substance	ISRE-luciferase fold induction over medium alone, 293 HEK cells transfected with ISRE-Luc. and IL-28R; ligand 100 ng/ml (fold induction)	ISRE-luciferase fold induction over medium alone, 293 HEK cells transfected with ISRE-Luc. and IL-28R; ligand 125 ng/ml (fold induction)
HuIL10 (from UniProt P22301 19-178) (ligand)	0.5	–
IL-28B (SEQ ID NO:6) (from UniProt Q8IZI9 22-196) (ligand)	–	104
Zcyto10 (from UniProt Q9NYY1 25-176) (ligand)	–	1
